Patent US20130005646A1 (Novo Nordisk, published 2013)
Starred links: 1 amine or outer side, 2 acyl side, 3 side chain; linkers in the order of their positions; H or OH if unused. Positions of bridges follow the written chain, without caps; N, C: chain ends. Groups on a side chain read outwards from the residue. No end group written: not given here. *: point of attachment. C20 diacid = O=C(O)CCCCCCCCCCCCCCCCCCC(=O)*; 19‑carboxyheptadecanoyl = not defined here; C18 diacid = O=C(O)CCCCCCCCCCCCCCCCC(=O)*; γGlu = O=C(O)[C@H](CCC(=O)[*:2])N[*:1]; AEEA = NCCOCCOCC(=O)O

T1: human amylin 3(a) receptor (human calcitonin receptor + RAMP-3) (human, UniProt P30988 25-474; O60896 24-148)
T1 sequence (looked up) 1: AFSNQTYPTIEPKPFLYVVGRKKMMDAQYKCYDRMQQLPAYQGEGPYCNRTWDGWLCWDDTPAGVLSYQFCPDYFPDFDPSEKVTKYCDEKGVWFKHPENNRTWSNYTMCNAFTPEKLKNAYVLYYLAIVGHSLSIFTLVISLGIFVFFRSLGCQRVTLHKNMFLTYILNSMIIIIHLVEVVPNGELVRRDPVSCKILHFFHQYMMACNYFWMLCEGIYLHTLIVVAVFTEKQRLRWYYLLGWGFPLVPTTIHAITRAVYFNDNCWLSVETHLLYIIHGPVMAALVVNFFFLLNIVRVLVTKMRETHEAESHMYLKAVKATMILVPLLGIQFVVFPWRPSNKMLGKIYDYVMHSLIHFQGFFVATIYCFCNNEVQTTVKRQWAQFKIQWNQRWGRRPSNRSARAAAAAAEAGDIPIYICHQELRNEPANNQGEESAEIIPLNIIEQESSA
T1 sequence (looked up) 2: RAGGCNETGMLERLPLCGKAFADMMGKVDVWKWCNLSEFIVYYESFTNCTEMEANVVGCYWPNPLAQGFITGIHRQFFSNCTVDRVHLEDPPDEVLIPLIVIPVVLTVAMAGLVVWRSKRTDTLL

T2: human calcitonin (a) receptor (human, UniProt P30988 25-474)
T2 sequence (looked up): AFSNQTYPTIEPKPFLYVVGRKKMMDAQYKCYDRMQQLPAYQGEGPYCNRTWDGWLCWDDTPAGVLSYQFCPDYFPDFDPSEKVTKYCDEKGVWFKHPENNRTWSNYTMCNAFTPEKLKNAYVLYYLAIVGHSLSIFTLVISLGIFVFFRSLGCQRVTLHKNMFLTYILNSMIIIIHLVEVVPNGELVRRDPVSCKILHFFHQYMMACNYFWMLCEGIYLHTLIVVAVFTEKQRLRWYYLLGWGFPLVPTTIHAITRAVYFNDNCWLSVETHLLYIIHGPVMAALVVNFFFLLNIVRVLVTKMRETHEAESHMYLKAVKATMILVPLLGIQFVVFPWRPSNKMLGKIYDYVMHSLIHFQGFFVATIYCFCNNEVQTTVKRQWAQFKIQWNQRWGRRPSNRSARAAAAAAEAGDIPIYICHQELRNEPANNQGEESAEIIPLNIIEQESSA


Experiments:
[1] = biological target: T1, human amylin 3(a) receptor (human …); assay: cell-based or functional assay
[2] = biological target: T2, human calcitonin (a) receptor; assay: cell-based or functional assay

| Binder | Amylin receptor human EC50 [1] [nM] | CTa receptor human EC50 [2] [nM] |
| --- | --- | --- |
| {C20 diacid-γGlu}-KCNTATCATQRLAEFLHHSSQNFGPILPPTNVGSHTY-NH2 (disulfide 2-7; SMILES CC[C@H](C)[C@H](NC(=O)[C@@H]1CCCN1C(=O)CNC(=O)[C@H](Cc1ccccc1)NC(=O)[C@H](CC(N)=O)NC(=O)[C@H](CCC(N)=O)NC(=O)[C@H](CO)NC(=O)[C@H](CO)NC(=O)[C@H](Cc1c[nH]cn1)NC(=O)[C@H](Cc1c[nH]cn1)NC(=O)[C@H](CC(C)C)NC(=O)[C@H](Cc1ccccc1)NC(=O)[C@H](CCC(=O)O)NC(=O)[C@H](C)NC(=O)[C@H](CC(C)C)NC(=O)[C@H](CCCNC(=N)N)NC(=O)[C@H](CCC(N)=O)NC(=O)[C@@H](NC(=O)[C@H](C)NC(=O)[C@@H]1CSSC[C@H](NC(=O)[C@H](CCCCN)NC(=O)CC[C@H](NC(=O)CCCCCCCCCCCCCCCCCCC(=O)O)C(=O)O)C(=O)N[C@@H](CC(N)=O)C(=O)N[C@@H]([C@@H](C)O)C(=O)N[C@@H](C)C(=O)N[C@@H]([C@@H](C)O)C(=O)N1)[C@@H](C)O)C(=O)N[C@@H](CC(C)C)C(=O)N1CCC[C@H]1C(=O)N1CCC[C@H]1C(=O)N[C@H](C(=O)N[C@@H](CC(N)=O)C(=O)N[C@H](C(=O)NCC(=O)N[C@@H](CO)C(=O)N[C@@H](Cc1c[nH]cn1)C(=O)N[C@H](C(=O)N[C@@H](Cc1ccc(O)cc1)C(N)=O)[C@@H](C)O)C(C)C)[C@@H](C)O) [N-alpha-[(S)-4-Carboxy-4-(19-carboxynonadecanoylamino)butyryl]-[Glu14,His17,Gln21,His35)-pramlintide] | 0.156 | 0.169 |
| {19‑carboxyheptadecanoyl-γGlu-AEEA-AEEA}-KCNTATCATQRLAEFLHHSSSNFGPILPPTNVGSHTY-NH2 (disulfide 2-7; reading uncertain; also: printed as N-alpha-[2-(2-{2-[2-(2-{2-[(S)-4-Carboxy-4-(19-carboxyheptadecanoylamino)butyrylamino]ethoxy}ethoxy)acetylamino]ethoxy}ethoxy)acetyl]-[Glu14,His17,Ser21,His35]-pramlintide) | 0.434 | 0.277 |
| {19‑carboxyheptadecanoyl-γGlu-AEEA-AEEA}-HCNTATCATQRLAEFLHHSSSNFGPILPPTNVGSHTY-NH2 (disulfide 2-7; reading uncertain; also: printed as N-alpha-[2-(2-{2-[2-(2-{2-[(S)-4-Carboxy-4-(19-carboxyheptadecanoylamino)butyrylamino]ethoxy}ethoxy)acetylamino]ethoxy}ethoxy)acetyl]-[His1,Glu14,His17,Ser21,His35]-pramlintide) | 0.938 | 1.08 |
| {C20 diacid-γGlu}-ERECNTATCATQRLANFLVHSSNNFGPILPPTNVGSNTP-NH2 (disulfide 4-9; SMILES CC[C@H](C)[C@H](NC(=O)[C@@H]1CCCN1C(=O)CNC(=O)[C@H](Cc1ccccc1)NC(=O)[C@H](CC(N)=O)NC(=O)[C@H](CC(N)=O)NC(=O)[C@H](CO)NC(=O)[C@H](CO)NC(=O)[C@H](Cc1c[nH]cn1)NC(=O)[C@@H](NC(=O)[C@H](CC(C)C)NC(=O)[C@H](Cc1ccccc1)NC(=O)[C@H](CC(N)=O)NC(=O)[C@H](C)NC(=O)[C@H](CC(C)C)NC(=O)[C@H](CCCNC(=N)N)NC(=O)[C@H](CCC(N)=O)NC(=O)[C@@H](NC(=O)[C@H](C)NC(=O)[C@@H]1CSSC[C@H](NC(=O)[C@H](CCC(=O)O)NC(=O)[C@H](CCCNC(=N)N)NC(=O)[C@H](CCC(=O)O)NC(=O)CC[C@H](NC(=O)CCCCCCCCCCCCCCCCCCC(=O)O)C(=O)O)C(=O)N[C@@H](CC(N)=O)C(=O)N[C@@H]([C@@H](C)O)C(=O)N[C@@H](C)C(=O)N[C@@H]([C@@H](C)O)C(=O)N1)[C@@H](C)O)C(C)C)C(=O)N[C@@H](CC(C)C)C(=O)N1CCC[C@H]1C(=O)N1CCC[C@H]1C(=O)N[C@H](C(=O)N[C@@H](CC(N)=O)C(=O)N[C@H](C(=O)NCC(=O)N[C@@H](CO)C(=O)N[C@@H](CC(N)=O)C(=O)N[C@H](C(=O)N1CCC[C@H]1C(N)=O)[C@@H](C)O)C(C)C)[C@@H](C)O) [N-alpha-[(S)-4-Carboxy-4-(19-carboxynonadecanoylamino)butyryl]-Glu-Arg-[Glu1,Pro37]-pramlintide] | 0.063 | 0.061 |
| {C20 diacid-γGlu}-ERECNTATCATQRLAEFLHHSSNNFGPILPPTNVGSNTP-NH2 (disulfide 4-9; SMILES CC[C@H](C)[C@H](NC(=O)[C@@H]1CCCN1C(=O)CNC(=O)[C@H](Cc1ccccc1)NC(=O)[C@H](CC(N)=O)NC(=O)[C@H](CC(N)=O)NC(=O)[C@H](CO)NC(=O)[C@H](CO)NC(=O)[C@H](Cc1c[nH]cn1)NC(=O)[C@H](Cc1c[nH]cn1)NC(=O)[C@H](CC(C)C)NC(=O)[C@H](Cc1ccccc1)NC(=O)[C@H](CCC(=O)O)NC(=O)[C@H](C)NC(=O)[C@H](CC(C)C)NC(=O)[C@H](CCCNC(=N)N)NC(=O)[C@H](CCC(N)=O)NC(=O)[C@@H](NC(=O)[C@H](C)NC(=O)[C@@H]1CSSC[C@H](NC(=O)[C@H](CCC(=O)O)NC(=O)[C@H](CCCNC(=N)N)NC(=O)[C@H](CCC(=O)O)NC(=O)CC[C@H](NC(=O)CCCCCCCCCCCCCCCCCCC(=O)O)C(=O)O)C(=O)N[C@@H](CC(N)=O)C(=O)N[C@@H]([C@@H](C)O)C(=O)N[C@@H](C)C(=O)N[C@@H]([C@@H](C)O)C(=O)N1)[C@@H](C)O)C(=O)N[C@@H](CC(C)C)C(=O)N1CCC[C@H]1C(=O)N1CCC[C@H]1C(=O)N[C@H](C(=O)N[C@@H](CC(N)=O)C(=O)N[C@H](C(=O)NCC(=O)N[C@@H](CO)C(=O)N[C@@H](CC(N)=O)C(=O)N[C@H](C(=O)N1CCC[C@H]1C(N)=O)[C@@H](C)O)C(C)C)[C@@H](C)O) | 0.136 | 0.378 |
| {C20 diacid-γGlu}-ERECNTATCATQRLAEFLRHSSNNFGPILPPTNVGSNTP-NH2 (disulfide 4-9; SMILES CC[C@H](C)[C@H](NC(=O)[C@@H]1CCCN1C(=O)CNC(=O)[C@H](Cc1ccccc1)NC(=O)[C@H](CC(N)=O)NC(=O)[C@H](CC(N)=O)NC(=O)[C@H](CO)NC(=O)[C@H](CO)NC(=O)[C@H](Cc1c[nH]cn1)NC(=O)[C@H](CCCNC(=N)N)NC(=O)[C@H](CC(C)C)NC(=O)[C@H](Cc1ccccc1)NC(=O)[C@H](CCC(=O)O)NC(=O)[C@H](C)NC(=O)[C@H](CC(C)C)NC(=O)[C@H](CCCNC(=N)N)NC(=O)[C@H](CCC(N)=O)NC(=O)[C@@H](NC(=O)[C@H](C)NC(=O)[C@@H]1CSSC[C@H](NC(=O)[C@H](CCC(=O)O)NC(=O)[C@H](CCCNC(=N)N)NC(=O)[C@H](CCC(=O)O)NC(=O)CC[C@H](NC(=O)CCCCCCCCCCCCCCCCCCC(=O)O)C(=O)O)C(=O)N[C@@H](CC(N)=O)C(=O)N[C@@H]([C@@H](C)O)C(=O)N[C@@H](C)C(=O)N[C@@H]([C@@H](C)O)C(=O)N1)[C@@H](C)O)C(=O)N[C@@H](CC(C)C)C(=O)N1CCC[C@H]1C(=O)N1CCC[C@H]1C(=O)N[C@H](C(=O)N[C@@H](CC(N)=O)C(=O)N[C@H](C(=O)NCC(=O)N[C@@H](CO)C(=O)N[C@@H](CC(N)=O)C(=O)N[C@H](C(=O)N1CCC[C@H]1C(N)=O)[C@@H](C)O)C(C)C)[C@@H](C)O) | 0.0895 | 0.367 |
| KCNTATCATQRLAEFLVHSSNNFGK([AEEA-AEEA-γGlu-C18 diacid])ILPPTNVGSNTY-NH2 (disulfide 2-7; N-terminus assumed; SMILES CC[C@H](C)[C@H](NC(=O)[C@H](CCCCNC(=O)COCCOCCNC(=O)COCCOCCNC(=O)CC[C@H](NC(=O)CCCCCCCCCCCCCCCCC(=O)O)C(=O)O)NC(=O)CNC(=O)[C@H](Cc1ccccc1)NC(=O)[C@H](CC(N)=O)NC(=O)[C@H](CC(N)=O)NC(=O)[C@H](CO)NC(=O)[C@H](CO)NC(=O)[C@H](Cc1c[nH]cn1)NC(=O)[C@@H](NC(=O)[C@H](CC(C)C)NC(=O)[C@H](Cc1ccccc1)NC(=O)[C@H](CCC(=O)O)NC(=O)[C@H](C)NC(=O)[C@H](CC(C)C)NC(=O)[C@H](CCCNC(=N)N)NC(=O)[C@H](CCC(N)=O)NC(=O)[C@@H](NC(=O)[C@H](C)NC(=O)[C@@H]1CSSC[C@H](NC(=O)[C@@H](N)CCCCN)C(=O)N[C@@H](CC(N)=O)C(=O)N[C@@H]([C@@H](C)O)C(=O)N[C@@H](C)C(=O)N[C@@H]([C@@H](C)O)C(=O)N1)[C@@H](C)O)C(C)C)C(=O)N[C@@H](CC(C)C)C(=O)N1CCC[C@H]1C(=O)N1CCC[C@H]1C(=O)N[C@H](C(=O)N[C@@H](CC(N)=O)C(=O)N[C@H](C(=O)NCC(=O)N[C@@H](CO)C(=O)N[C@@H](CC(N)=O)C(=O)N[C@H](C(=O)N[C@@H](Cc1ccc(O)cc1)C(N)=O)[C@@H](C)O)C(C)C)[C@@H](C)O) | 0.076 | 0.101 |
| KCNTATCATQRLAEFLVHSSK([AEEA-AEEA-γGlu-19‑carboxyheptadecanoyl])NFGPILPSTNVGSHTY-NH2 (disulfide 2-7) | 1.09 | 0.48 |
